# According to article PMC3121535 (Journal of molecular biology, 2010):
# Residue numbers refer to the chain shown, from its start. Names and notes keep the numbering of the source. Where no end group is shown, it is not given here. [ ]: non-standard residue; d: D form. pS = N[C@@H](COP(=O)(O)O)C(=O)O
# B1: wild-type phospholamban (PLB) (natural protein, human, UniProt P26678 1-52, looked up)
# chain: MEKVQYLTRSAIRRASTIEMPQQARQKLQNLFINFCLILICLLLICIIVMLL
# B2: phospholamban gain-of-function mutant Lys27-to-Ala (K27A) (natural protein, human, UniProt P26678 1-52, looked up)
# chain: B1 chain with K27A
# B3: phosphorylated K27A phospholamban (Ser16, by PKA) (natural protein, human, UniProt P26678 1-52, looked up)
# chain: MEKVQYLTRSAIRRA[pS]TIEMPQQARQALQNLFINFCLILICLLLICIIVMLL
# modifications: cysteine pairing not given here
# B4: phosphorylated wild-type phospholamban (Ser16, by PKA) (natural protein, human, UniProt P26678 1-52, looked up)
# chain: MEKVQYLTRSAIRRA[pS]TIEMPQQARQKLQNLFINFCLILICLLLICIIVMLL
# modifications: cysteine pairing not given here
# How the values were obtained:
# [1] = molecular target: SERCA (sarcoplasmic reticulum calcium ATPase); experiment: 2D co-crystal frequency, negative-stain EM; conditions: sites S16
# [2] = molecular target: the molecule itself; experiment: cryo-EM structure
# [3] = molecular target: the molecule itself; experiment: SDS-PAGE
molecule,measurement,setting,value
phospholamban (PLB) (from UniProt P26678) PKA-phosphorylated K27A PLB,other: crystals per grid square,[1]; reference: non-phosphorylated K27A PLB,weaker; reference 5 ± 1 (n = 6)
phospholamban (PLB) (from UniProt P26678) PKA-phosphorylated wild-type PLB,other: crystals per grid square,[1]; reference: non-phosphorylated wild-type PLB,weaker; reference 3.1 ±0.5 (n = 7)
B1,stoichiometry N,[2],5
B2,stoichiometry N,[2],5
B3,stoichiometry N,[3],5
B4,stoichiometry N,[2],5
